Source: patent publication US20040001835A1, “Prevention or treatment of cancer using integrin alphavbeta3 antagonists in combination with other agents” (MedImmune, Inc., priority 2002, published 2004)

What was measured:
[1] = target: T1, αvβ3 expressed on placenta (placental trophoblasts) (Mus musculus, UniProt O54890); assay: Immunohistochemical staining of placental trophoblasts; assay type: binding; details: frozen thin sections, antibody 10 μg/ml
T1 construct: from tissue; host or cells: placenta (frozen sections)
T1 sequence (O54890 26-787): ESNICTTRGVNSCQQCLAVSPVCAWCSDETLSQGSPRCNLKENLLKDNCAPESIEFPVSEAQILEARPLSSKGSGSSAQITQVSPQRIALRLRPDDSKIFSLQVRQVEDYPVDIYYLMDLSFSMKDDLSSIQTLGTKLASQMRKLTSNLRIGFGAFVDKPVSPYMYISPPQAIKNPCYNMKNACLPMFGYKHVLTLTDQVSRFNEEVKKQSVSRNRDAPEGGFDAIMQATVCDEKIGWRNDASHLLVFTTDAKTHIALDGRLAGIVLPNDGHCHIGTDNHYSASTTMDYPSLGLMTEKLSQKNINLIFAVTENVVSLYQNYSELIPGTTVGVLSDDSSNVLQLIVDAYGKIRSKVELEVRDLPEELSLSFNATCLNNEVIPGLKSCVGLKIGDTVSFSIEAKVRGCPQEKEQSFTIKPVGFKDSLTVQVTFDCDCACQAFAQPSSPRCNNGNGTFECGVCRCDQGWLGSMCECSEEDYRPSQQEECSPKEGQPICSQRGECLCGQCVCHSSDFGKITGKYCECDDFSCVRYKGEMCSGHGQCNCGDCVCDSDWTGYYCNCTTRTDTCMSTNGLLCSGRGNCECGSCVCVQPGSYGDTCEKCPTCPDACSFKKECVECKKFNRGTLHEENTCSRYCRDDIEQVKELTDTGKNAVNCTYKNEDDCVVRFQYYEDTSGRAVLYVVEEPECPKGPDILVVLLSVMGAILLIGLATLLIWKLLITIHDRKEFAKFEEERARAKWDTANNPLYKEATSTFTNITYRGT
T1 sequence (P43406 31-885 partner limits assumed): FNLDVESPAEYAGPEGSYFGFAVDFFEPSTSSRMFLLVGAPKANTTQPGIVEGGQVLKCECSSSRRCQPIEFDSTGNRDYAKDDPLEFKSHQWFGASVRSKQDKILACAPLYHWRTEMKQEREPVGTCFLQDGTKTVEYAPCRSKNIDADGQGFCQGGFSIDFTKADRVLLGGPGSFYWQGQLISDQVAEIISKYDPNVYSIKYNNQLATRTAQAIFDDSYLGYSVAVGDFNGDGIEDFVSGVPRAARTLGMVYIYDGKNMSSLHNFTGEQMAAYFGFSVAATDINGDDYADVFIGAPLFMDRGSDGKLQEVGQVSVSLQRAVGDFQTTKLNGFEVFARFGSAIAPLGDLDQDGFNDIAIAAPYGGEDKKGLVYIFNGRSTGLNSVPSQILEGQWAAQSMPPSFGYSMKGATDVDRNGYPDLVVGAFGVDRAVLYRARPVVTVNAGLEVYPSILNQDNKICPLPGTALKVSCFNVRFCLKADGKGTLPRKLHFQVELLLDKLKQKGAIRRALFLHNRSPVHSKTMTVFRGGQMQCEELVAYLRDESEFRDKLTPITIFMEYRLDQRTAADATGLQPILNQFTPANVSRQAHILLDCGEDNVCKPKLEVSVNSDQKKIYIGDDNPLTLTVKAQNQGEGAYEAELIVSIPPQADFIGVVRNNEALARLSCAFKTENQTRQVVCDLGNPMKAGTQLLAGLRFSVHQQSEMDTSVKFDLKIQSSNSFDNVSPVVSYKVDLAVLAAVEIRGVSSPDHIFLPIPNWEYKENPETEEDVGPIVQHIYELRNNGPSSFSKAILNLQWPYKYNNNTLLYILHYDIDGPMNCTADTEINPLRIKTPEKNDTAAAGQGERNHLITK
T1 sequence (P43406 887-1044 partner limits assumed): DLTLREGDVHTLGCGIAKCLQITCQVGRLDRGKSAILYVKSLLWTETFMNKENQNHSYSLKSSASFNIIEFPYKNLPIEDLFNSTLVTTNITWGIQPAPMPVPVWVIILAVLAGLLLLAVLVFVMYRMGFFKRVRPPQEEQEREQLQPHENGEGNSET
Procedure: (§1) Table 3. Immunohistochemical staining of placental trophoblasts. Placental tissue, a rich source of αvβ3, was collected either immediately after parturition or from freshly-sacrificed, late-term pregnant animals. Tissue fragments, approximately 1 cm^3, were frozen in OCT, and thin sections were stained with monoclonal antibodies (10 μg/ml) at Sierra Biomedical (Sparks, Nev.). Vitaxin® recognized αvβ3 expressed on human, monkey, guinea pig, hamster and rabbit placenta, while […] with human and monkey αvβ3. […] ND, not done.

[2] = test system: αvβ3 expressed on placenta (placental trophoblasts); assay: as above; assay type: binding; details: frozen thin sections, antibody 10 μg/ml
Procedure: as §1

[3] = target: T2, modified mouse Integrin αVβ3 with amino acids 164-202 of the human β chain (Mus musculus, UniProt O54890, A208T/I198L/K199E/N204D/N207T/Q196E/S226T); assay: Binding to modified mouse Integrin αVβ3; set-up: species or system mouse/human chimera
T2 sequence (O54890 26-787 Q196E/I198L/K199E/N204D/N207T/A208T/S226T): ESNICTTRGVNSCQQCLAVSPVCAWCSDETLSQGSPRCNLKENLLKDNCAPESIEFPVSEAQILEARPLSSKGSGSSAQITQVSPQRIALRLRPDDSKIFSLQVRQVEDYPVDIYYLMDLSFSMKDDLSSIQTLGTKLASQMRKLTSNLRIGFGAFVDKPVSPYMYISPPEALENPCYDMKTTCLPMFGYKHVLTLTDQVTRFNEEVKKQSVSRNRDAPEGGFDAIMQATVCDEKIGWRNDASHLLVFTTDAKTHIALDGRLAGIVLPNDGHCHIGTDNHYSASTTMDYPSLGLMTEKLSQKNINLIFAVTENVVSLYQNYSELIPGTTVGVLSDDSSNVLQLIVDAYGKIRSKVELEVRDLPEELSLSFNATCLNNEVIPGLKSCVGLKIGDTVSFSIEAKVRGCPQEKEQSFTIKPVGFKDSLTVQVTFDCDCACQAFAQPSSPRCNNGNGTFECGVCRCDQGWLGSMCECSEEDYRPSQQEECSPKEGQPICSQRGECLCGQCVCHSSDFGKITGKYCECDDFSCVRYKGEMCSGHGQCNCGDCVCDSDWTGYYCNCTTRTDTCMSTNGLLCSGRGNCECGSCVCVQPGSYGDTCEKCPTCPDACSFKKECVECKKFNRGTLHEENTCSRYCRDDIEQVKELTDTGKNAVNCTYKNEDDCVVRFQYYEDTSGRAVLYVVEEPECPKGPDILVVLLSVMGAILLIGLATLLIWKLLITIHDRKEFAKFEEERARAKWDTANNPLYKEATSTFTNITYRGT
T2 sequence (P43406 31-885 partner): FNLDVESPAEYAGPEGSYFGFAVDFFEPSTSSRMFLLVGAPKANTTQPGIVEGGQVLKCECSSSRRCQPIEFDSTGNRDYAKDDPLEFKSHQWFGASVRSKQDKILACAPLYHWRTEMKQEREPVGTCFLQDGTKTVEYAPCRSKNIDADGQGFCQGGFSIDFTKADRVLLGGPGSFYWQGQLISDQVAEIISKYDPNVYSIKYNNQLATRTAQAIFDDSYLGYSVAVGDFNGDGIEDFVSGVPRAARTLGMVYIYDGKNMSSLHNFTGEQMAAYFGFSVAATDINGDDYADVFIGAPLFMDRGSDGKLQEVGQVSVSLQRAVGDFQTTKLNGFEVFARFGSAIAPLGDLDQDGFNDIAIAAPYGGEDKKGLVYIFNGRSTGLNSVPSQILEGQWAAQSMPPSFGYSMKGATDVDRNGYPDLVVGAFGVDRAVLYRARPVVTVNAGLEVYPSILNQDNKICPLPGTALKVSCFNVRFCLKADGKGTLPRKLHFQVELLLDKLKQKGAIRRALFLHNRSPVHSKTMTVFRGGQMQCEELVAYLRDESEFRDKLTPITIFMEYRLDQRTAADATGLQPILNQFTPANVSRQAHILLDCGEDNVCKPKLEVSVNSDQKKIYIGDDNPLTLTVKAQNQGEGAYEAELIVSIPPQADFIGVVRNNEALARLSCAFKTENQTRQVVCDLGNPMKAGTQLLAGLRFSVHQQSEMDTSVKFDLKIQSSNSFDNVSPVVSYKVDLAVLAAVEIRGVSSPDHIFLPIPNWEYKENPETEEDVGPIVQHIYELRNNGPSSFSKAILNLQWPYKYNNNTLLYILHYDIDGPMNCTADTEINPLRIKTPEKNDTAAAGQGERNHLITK
T2 sequence (P43406 887-1044 partner): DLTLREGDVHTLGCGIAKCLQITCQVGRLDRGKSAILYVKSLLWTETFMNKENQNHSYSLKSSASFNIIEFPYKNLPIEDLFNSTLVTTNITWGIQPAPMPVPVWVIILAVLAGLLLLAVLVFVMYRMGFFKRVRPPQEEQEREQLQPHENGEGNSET

- Staining of Placental Trophoblasts [1]: Negative
- binding to modified mouse Integrin αVβ3 (human β chain amino acids 164-202) [3]: do bind
B1: Vitaxin®: humanized blocking monoclonal antibody that binds Integrin αVβ3 (MEDI-522, MedImmune); humanized and optimized version of LM609 (antibody, chains of the INN, looked up, V domains shown)
VH: QVQLVESGGGVVQPGRSLRLSCAASGFTFSSYDMSWVRQAPGKGLEWVAKVSSGGGSTYYLDTVQGRFTISRDNSKNTLYLQMNSLRAEDTAVYYCARHLHGSFASWGQGTTVTVSS
VL: EIVLTQSPATLSLSPGERATLSCQASQSISNFLHWYQQRPGQAPRLLIRYRSQSISGIPARFSGSGSGTDFTLTISSLEPEDFAVYYCQQSGSWPLTFGGGTKVEIK
- Staining of Placental Trophoblasts ([2]; Cynomolgus monkey placenta): recognized
- Staining of Placental Trophoblasts ([2]; Guinea pig placenta): recognized
- Staining of Placental Trophoblasts ([2]; Hamster placenta): recognized
- Staining of Placental Trophoblasts ([2]; Rabbit placenta): recognized
